Test [1] in a line: Terpene synthase reaction product identification by GC-MS (incubation with FPP at pH 7.5). The class given is biochemical. The method, then:
Partially purified protein was subsequently incubated with FPP at pH 7.5 using typical sesquiterpene synthase reaction conditions and the pentane extractable products examined by GC-MS (FIG. 7). Two compounds accounting for greater than 95% of the total reaction products dominated the GC profiles and were identified as beta-elemene (30%) and valencene (65%) on the basis of MS matches with authentic standards. The beta-elemene peak most certainly represents a thermal rearrangement product of germacrene A resulting from high temperature injection into the GC.
Small scale reactions of 50 μL were used for screening purposes and rate determinations. Reactions typically contained 200 mM Tris-HCl, pH 7.5, 40 mM MgCl2, 0.5 μCi [1-3H]FPP, 25-30 μM FPP and 160 nM enzyme. For kinetic determinations, 10 μL aliquots of FPP (giving final concentrations of 0.7-23 μM) were rapidly mixed with 40 μL of enzyme solution at room temperature (23° C.) and allowed to incubate for 1 minute. The reactions were terminated by addition of 150 μL, of a 100 mM KOH, 0.5 M EDTA stop solution. Reactions were extracted with 500 μL of hexane and an aliquot was taken for determination of radiolabeled hydrophobic product via liquid scintillation counting. Hexane extracted samples were not subject to silica chromatography prior to counting because background was minimal and synthase mutants could possibly produce reaction products containing alcohols, which would bind to silica. Kinetic constants were determined from direct fits of the Michaelis-Menton equation to the data using Graphpad Prism 2.01 software.
Initial synthase reaction products were examined by GC-MS. […] Pooled extracts were dried to 50 μL under a stream of nitrogen gas and 1 μL aliquots of this organic extract were analyzed by GC-MS using an HP-GCDplus (Hewlett-Packard, Palo Alto, Calif.) equipped with a DB-5 ms column, an injector temperature of 250° C. and the mass selective detector set to scan for ions within the range from 45 to 250 m/z. […]

Test [2] is described as follows: pH dependence assay of reaction product specificity (GC-MS). It counts as biochemical. As to the method: Reactions to determine pH dependence were performed in glass GC-vials with 100 nM of purified enzyme, 20 mM MgCl2, 50 μM FPP (Echelon; Salt Lake City, Utah), and 100 mM buffer at various pH values; total reaction volume 500 μL. The buffers were chosen within one pH unit of the buffer's pKa (pH 5-5.5, acetate; pH 6-7, MES; pH 7.5-9, Tris; pH 9.5-10, ethanolamine; pH 10.5, CAPS). Reactions were allowed to proceed at room temperature for 30 min prior to overlaying with 500 μL of ethylacetate, vortexing for 10 sec, then direct analysis of the reaction products using an HP 6890 gas chromatograph with a 5973 mass spectrometer (Agilent Technologies, Palo Alto, Calif.) with an auto-sampler programmed to remove […] only from the organic phase. GC separations were performed on a 5%-phenyl-methylpolysiloxane column (J&M Scientific, Folsom, Calif.) of 30 m×0.25 mm i.d.×[…] with He as the carrier gas at 2 mL/min and a temperature gradient of 10° C./min from 50° C. (5-min hold) to 180° C. (4-min hold). GC/MS data was analyzed using HP-Chemstation software (version B.01.00) and integration of terpene peaks used for quantification.

The mark [3] stands for this setting: partially purified protein incubated with FPP at pH 7.5, pentane extractable products, GC-MS.

Several values for one entry are separate records, joined by “and”; a condition that tells them apart may be missing. Equal values may be shown once.

B1: CVS: citrus valencene synthase from Citrus paradisi, recombinant His-tagged protein expressed in E. coli, SEQ ID NO.: 4 (protein)
chain: MSSGETFRPTADFHPSLWRNHFLKGASDFKTVDHTATQERHEALKEEVRRMITDAEDKPVQKLRLIDEVQRLGVAYHFEKEIEDAILKLCPIYIDSNRADLHTVSLHFRLLRQQGIKISCDVFEKFKDDEGRFKSSLINDVQGMLSLYEAAYMAVRGEHILDEAIAFTTTHLKSLVAQDHVTPKLAEQINHALYRPLRKTLPRLEARYFMSMINSTSDHLYNKTLLNFAKLDFNILLEPHKEELNELTKWWKDLDFTTKLPYARDRLVELYFWDLGTYFEPQYAFGRKIMTQLNYILSIIDDTYDAYGTLEELSLFTEAVQRWNIEAVDMLPEYMKLIYRTLLDAFNEIEEDMAKQGRSHCVRYAKEENQKVIGAYSVQAKWFSEGYVPTIEEYMPIALTSCAYTFVITNSFLGMGDFATKEVFEWISNNPKVVKAASVICRLMDDMQGHEFEQKRGHVASAIECYTKQHGVSKEEAIKMFEEEVANAWKDINEELMMKPTVVARPLLGTILNLARAIDFIYKEDDGYTHSYLIKDQIASVLGDHVPF
modifications: His tag; Citrus X paradisi
For the molecule B1, the “beta-elemene plus valencene as share of total reaction products” value in test [1] (pH 7.5, GC profiles) is reported as “greater than 95%”. In addition, in test [1] (setting [3]), the “beta-elemene (thermal rearrangement product of germacrene A) as share of total reaction products” value is recorded as 30% and the “valencene as share of total reaction products” value came to 65%. The “pH of transition from valencene to germacrene A as dominant reaction product” value in test [2] (FIG. 10) is 8.0 pH and ~8.2 pH. For the same molecule, in test [2] (FIG. 10, FPP substrate), the “pH of optimal germacrene A biosynthesis” value turned out to be 8.5 pH and the “pH of optimal valencene biosynthesis” value is given as 7.0 pH. Besides, in test [2] (at all pHs, ethylacetate extracts, GC-MS), the “valencene plus germacrene A (measured as β-elemene) as share of total reaction products” value was “greater than 95%”. In test [2] (between pH 6.0 to 7.0), the “germacrene A as reaction product” value is on record as “virtually no germacrene A was detected”.
